Experimental data from the domain aggregation screens of Martell et al. (2025).

assay: soluble fraction after stress (log2 fold change); higher = more stays soluble; pooled small domains, quantitative proteomics; conditions: stress: 50 degC
Procedure, shortened: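 The stress applied to every library was 50°C. These custom libraries of small protein domains were pooled and measured at high throughput with quantitative proteomics as the read-out. Aggregation propensity is expressed as the base-two logarithm of the fold change in how much of each protein remains soluble. The higher the value, the more of that protein stays in solution.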

Row | Sequence | soluble fraction (log2)
1 | HMSWEQELIEKANEIIDLYPEKRSALGPLLYLAQERDGYISDESIVEISNLVGITEVQVKSVASFYSMYK | -3.57
2 | HMAIEMSTITKRVTSTGEIRYRALLQIRREDVNYTESRTFSKKSLAEAWLKKREVELEANPELLHQ | -1.32
3 | HMPLSVRQRMSDILSNLKTSDFTNFADLFDPKEGRTGITVTFIAILELLREFLIEVVQSDHYQPLHVRAAS | -0.291
4 | HMSARKVTVALHTRDHADRLRRLLKHEGVSADLVAARLSHKLTDHPIEVRVNEDDIPAVLRIIENIEIF | -1.31
5 | HMRTYYEILGVSKNASLHEIQKAYRELALKYHPKNNSDPTAEEKFTQINEAYTHLSDAARRRSYDDL | 0.222
6 | HMLNSISIKTNKKIDFLEKNEHLVNFVYEKETMEHIYNLSYENKKDLQELQNKLSDIEGIIKINTDL | 0.133
7 | HMEDLDKIISAYLDENPQIVSDYGKGNKKAVNSAIGFVMKSTGGKYSSSDIVDAVRSMIVSISV | -0.482
8 | HMITKAIELAEEAEKETVWLGVWEHNHPAQKFYQSLGFVKTDEHDFYMGNERHTDYTMTKQLK | -0.138
9 | HMYFFNTFTQRLFDNPELTQEEAIRQMYPGISGVQTAEKLQENFMADVYIQAAIRQEIVVQLIR | -0.529
10 | HMDPNAITSAQVTKLQVLANEKGFAERQARLTMWAEVIGRNVGTANELTKAEAHKLIEHMDALPV | -0.488
11 | HMQEESISWKEFLELDIIGDKKKRLKVYDLFHLGYGNAKTLFKRLNMVGISREMIEKELENEGY | -1.32
12 | HMNMVSGHLQVKKGYYYAVLSFYDSKNKRHVKYISTGLPEKGNKRKAEAELVKIRNAFEPPAE | -0.338
13 | HMDGIGLRVRMIREGVGLTQKQLAEHLGMQRTALVQVEAGSRKLSASELIGVARFFNITVEQFLDPEK | -3.37
14 | HMFTYDLSERELTIIELVAKGLNNKELADTLFLSEGTIRNYLSTLLNKLDLRDRTQLAIFYYQHL | -2.62
15 | HMKEILTNESIIQFVKDKVSEEQIIYKINNSPIDFKLDVNSMVSLAKQNVSSTIIIAMENAMNN | -0.256
16 | HMLLGDYIQKLRNQRGLSQQEFADKLGIGRSTLANYEQNKRSPDYETLIEISKFFNVSIDELLGV | -0.484
17 | HMTRAEVQALLEKQAKDFEVEVVHRGWKKTVQTPEFAGWYSQQPAEIKALAESDDPAVAIRMLDLFSGTK | -0.0852
18 | HMLSLGIMEADMLKTGKHTISGISKATPEQRQKIDSDIEELKKKYPEKNITSKVENDNLIVESGVTAP | 0.278
19 | HMEALPSNLRRLRLEAQLTLDRLGALSGVSRAMISKIERGASVPTATMLGKLAAALQVSLSQLL | -0.97
20 | HMDYTPIEVKDLPQAIQDALTKNFSEYTVKSAAYQEDEDGVKIYQVTVVDEEGTEANIFFTEKGE | 0.0163
21 | HMSISSSEAARSAVASSGGTVLGVSKASHGGYKAWAVRIQRADGSVVTGYVDRASGTVYDWVVNQAA | -0.3
22 | HMHDYTTIIGVIELRLNKISYDNVQKRYRIGRSGISLIMERYRDSGLSLDDLKQMPAEKVVNLIYPKD | -0.954
23 | HMPVYEEEVPAALDGQRLDRVVAMVTGLSRSEVGALLAAGAVTVDGTTPAKGSVRLAAGSIVSVTVS | -0.145
24 | HMLEAKQIQDNWESLIKLIEDNFTGERKENLLKMYTHFQDRMMFAPASSKEHFHNAFPGGYVEHVL | -0.293
25 | HMRESPYRRVAKFLLLIGTAEAAKIVSRLDQDQVEKVMLELSGIRSVPRDEATVILAEFESLLQQAR | -1.47
26 | HMGWEDLVGKTAVVKVALAPVGMVFFRGEFWSAISETGRIEPGEEVTISRIDGLKLYVTKKRIM | -0.607

Row | Sequence | soluble fraction (log2)
27 | HMQAPVVNHDLIKSFERQWREIKATAKGKVRSVNLSDARSILQSFLNTLQKGPGTDSLISSVQNELSLIA | -0.00186
28 | HMVDTEVFSRLLRKVLAGDVTSAIRILEELIVGGRELSQFVGDFTWYMRNLLLVKTSDNPEEA | -0.397
29 | HMISDISEIEAIIVEVLKVFPNQLQEYLDGKEKILSFFVGQVMQRTKGRANPSLVNEILKEKIKN | 0.0377
30 | HMKFYIHEIIGFNAVDKVAGIVGKVININEDSPQKKLVVNYNGKEVFIPLVDEIVRKIDKQKNEVLITMP | 0.155
31 | HMNPGNTESFPVYQKRLGEIIQTLAGKKGQDINSPEVKELVGEYDFLTKQMFQLPDATSMVMEIATAYRN | 0.0462
32 | HMPAAKARTWQEATHAFQRDFLLETLRRARFNAADAADQLGLARPALYTTAKRLGLDLVAERQRWEAEAH | -0.173
33 | HMKGMIKVASMSLGADLGLYSRHLKYLGIVHRVVEESGGQSVYIQKLNDLHTAKESLELYLKNELKI | -1.19
34 | HMGAVQFAEQKIHIGSRWIGKKISEFSAESDAFVILIKRGSEVVIPRGPTDIVENDVLVIHVPD | -2.56
35 | HMSYEDLIQAVSGHFGIEIRALLSEDRKKENMIPRQVAMYLLKNKLHYTYERIGNIFSGRNHTAVMYSV | -0.193
36 | HMDEYFNPETVVHYLRELFDTYRENGGNPFEWFHSTFESVNLNPQNYRKDLITTIEKALIEWIEIFEKQ | -0.0143
37 | HMNQLSYTERRVLQVIEGGTTKTGEIEQALAAKMSRPTVHRALDALVGANRIHRLARGEYALGPAP | -0.147
38 | HMLHNEFINDRIQSAINNLSEHFKIVIILRDIQELSYEEISNIVEVPLGTIKSRINRARIQLQAELLDL | 0.269
39 | HMDTPMQEAVLQRLRDKVAQAAAGSKLPTVRQLIADYGVGQHVIQAALEKLRTEGLITSHVGKGTFVG | 0.447
40 | HMDMTPEEFLAWARHKPFGDPFPKTQTVTFLVPLLGVSRTNIFTWISGKVNPSKTSLLLMEALKRENR | -0.289
41 | HMGQGSAFVYYEVLPKQTEYSLTRKLGLGYADLLSLNPQLARGLQAGMVLKIPRDKAGNLEVKNDLILE | -0.271
42 | HMANTVVMPNLLGKTMTEAKIELKELGIDITLKGSESSSKYSAGQIMEQNIAEGTKVEVGSSVEVTIAGS | -0.306
43 | HMTIENTDTFLETLWEQVQRASVDENGIITSRVLIWDEGTKLDEILSWFDKRHSLGALYLQFG | -2.47
44 | HMTSIISLAKARSIALQKVPGATSKNIHLSLDDEDDKQVYEGEIKYKQMEYVFEIDAKTGTFLKWTSERD | -1.66
45 | HMIPDMSLELAMSEQTSKGDLYGDLPNDKLALMFNAISKKVPHTDDHKRKMVAIQTILESRAS | -0.251
46 | HMHVLNEEYYNRIKAIQFTMNHDDGNSLNDIEKSDIILLGVSRTSKTPTSIYLANRGLRTSNIPLINEK | -0.326
47 | HMTGWINVDKNWYYMNNSGSMARGMINVNNVSYYLDENGKMLSNTTVNVNGTDYRIDASGAMSQI | -0.564
48 | HMTGEDIKKVILREYAREKSLLSIFHELSKVNSNVTLEVIKDIITNIDKLPNDLLQYFKEESSFYQKNKN | -0.397
49 | HMENEFEAYSDGSSIQLNDPSKATYVVFDRQGRLLHLFQNHSLSSLSIERKNQILIITRETADGVSVKKIV | -0.415
50 | HMTEFFNMQDMFYFKLTGDVTSKERRQSLGKILGIGYGNAAQMVSRLNNYGITKEEFTNAINEIEKQMEAG | -0.775
51 | HMSMNGNMIHATVIWKGRYFLVKMFFPQLTKPKRAEVQAQIEKAYPGSRVASYHITDYKPGEQFLHV | -1.51
52 | HMVPVVGTTIPHEFIGKFGSARVMLKPAVEGSGVIAGGSARAVLELAGYKDIKTKVLGTNNPRNVVYATMN | 0.0414

Row | Sequence | soluble fraction (log2)
53 | HMAGTGKVNTGVANVRSGPGTNYEISGKIYADTEVSILETSNGWYKIKFGNLTGWMSGTVLDIK | -0.138
54 | HMTRILTEDDIVNFLIRQPDTAYIIAKSFNENERKVKELLDLLIKKNKVREEIVNGVVSYAVN | -0.199
55 | HMTGKTTLEYLNPLLERGIPVWDYLAKASGKAKEEVQEMVSKGLVPGAEAAKAIADYMGAEFAGSMA | 0.0316
56 | HMQVSDEGAIQLLVQKAIEENPQAIEAFRGGKTSALGPVVGWVMKQSKGAANPTMVKTLLEKAI | 0.293
57 | HMDRDMGSMTDFENVRDAYLTGKVWNVGDLIEANGITGIIIRKGTNYVSYNDGDGKVHKAWLHDITL | -0.886
58 | HMGGSIDITTAPPGAKIYLDADYYGKTPKRLENISAGTYRLHLLHPEKGEVYRSVTLNEKNGTLKIDENLN | 0.124
59 | HMWSNTAVIDRIRQLHEEGQPISSQSVQVNHKSLYMAAIKRFRGWKRAVEAAGIDYRQIRLR | -1.92
60 | HMSMDAVSLANRLLRFFQKRPGRKFTAADLAFETGMNERTGKSLVTSALEILSRTNQIEADGDGFRLKM | 0.138
61 | HMVMAELRISVDRLQIGNYIKLPLSWRDHPFLLSSFMIKKEEQIQLIRQLRLKHVFIIPEKSDAPPKPA | -4.15
62 | HMAQLTPREREVLVLIAEGKSNKEIADQLNIGVRTIETHRERIMRRLNIHSVAGLTKYAIANGLVTL | 0.116
63 | HMKNLSQAEFMYLFKILAFGSTDPDNHPEMAATGMEIAKMLQGLLLSGNVLADILRKNQNVQFWL | -0.204
64 | HMIGRRLKVARASAGLSLRELAARMDGVVTPQAIGKYERNEDMPGSRALMALASALGVSEGYLLSD | -0.831
65 | HMNQTTYTVLYSGMDPADTGKVLTALNEMGVDARTQGEDTVLVPADRADEIRLELAAQGYPTS | 0.0864
66 | HMGGKTAVVTGSLVNVRKGPGTGNALVGQVARGDELPVLGQDGDWYQIKLANGSNGWVAGWLVSLKDAVP | 0.432
67 | HMEEFDLNAYITKINSAATLNALKQAYAEANSAALSVKDKDAQRKIIVEKDKRKAELIQETAG | 0.31
68 | HMLENIVFTNKFKNKRLDVLLVDMKLVSSRQKAVSLIMRGNVFVEEERADKPGKIIKLNQTISLKK | -2.6
69 | HMSATIMVLRASEDIPVGTEIKDNHLTTVEVGSYGLPEGAINDKDTVLGKVAQTNIIKGDYFFPQKLGG | 0.152
70 | HMNYTALLNNFSENMKKRRVELSLSQKELASIVGVSVRTIQNYENKKTIPTSAVMESISIALDMGLEKMID | -1.27
71 | HMPPSRFNELSMWFQEQLTEAGLKVDSGALKMLIEWLGQDQARLPSIIEVLVSTYGTKKKLTVDEIEPFL | 0.234
72 | HMETWKLYKRAYKKYYARYMKGNMSEADFKAWATQAAADRDAAIEQITPEIDAALKAQIIEQLREKLNR | -0.856
73 | HMETEAGIKAYLSSSMIKGIGPVTAQRIVERFGKRTLYVLDQMPEKLLDISGISEAKLEEILNGYRKS | -0.24
74 | HMGQVGIPFSDFLAEVENGQVREVVIKGNDISGTFNDNRGFSTYAPNDPNLVEKLTKRGVVINAQPTE | 0.0645
75 | HMDLDIGSVLQASRGEKKISLRQLAERTGLTASMLSQIERNLVNPSINTLKVIAAALEIPMYKFFMG | -0.835
76 | HMSILYNAVKGTLVSSGALTADSWYKISSFGTASALPALKVGSIFKTPEGAGDAITLASGDSVYPLTLT | -1.26
